From PMC3942486 (2014)

B1: styryl-SMRT peptide, labelled with BODIPY TMR (peptide)
chain: LVATVKEAGRSIXEIPR
modifications: styrylalanine in place of histidine1426; BODIPY TMR dye coupled via the amino-terminal cysteine
B2: homophenylalanine-SMRT peptide, labelled with BODIPY TMR (peptide)
chain: LVATVKEAGRSIXEIPR
modifications: homophenylalanine in place of histidine1426; BODIPY TMR dye coupled via the amino-terminal cysteine

Target: BCL6-POZ domain (residues 7 to 128 of human BCL6, C8Q, C67R, C84N) (human, UniProt P41182 7-128, cysteine8 mutated to glutamine | cysteine67 mutated to arginine | cysteine84 …)
Experiment: FP

| Kd | Binder |
| --- | --- |
| 41 µM | B1 |
| 43 µM | B2 |
